Measurements: US20210292393A1 (published 2021)

B1: antibody 328 (antibody, V domains shown)
VH: QVQLQESGPGLVKPSGTLSLTCAVSGGSISSSNWWSWVRQPPGKGLEWIGEIYHSGSTNYNPSLKSRVTISVDNSKNQFSLKLSSVTAADTAVYYCARESVAAAGISYYYYGMDVWGQGTTVTVSS
VL: DIQMTQSPSSLSASVGDRVTITCRASQGIRNDLGWYQQKPGKAPKRLIYAASSLQSGVPSRFSGSGSGTEFTLTVSGLQPEDFATYYCLQYNSSPLTFGGGTKVEIK
B2: antibody 570 (antibody, V domains shown)
VH: QVQLQESGPGLVKPSQTLSLTCTVSGGSISSGSYYWSWIRQPAGKGLEWIGRIYTSGSTNYNPSLKSRVTISVDTSKNQFSLKLSSVTAADTAVYYCAREGQWLYRFDYWGQGTLVTVSS
VL: not shown
B3: antibody 574 (antibody, V domains shown)
VH: QVQLVESGGGVVQPGRSLRLSCAASGFTFSSYAMHWVRQAPGKGLEWVAVISYDGSNKYYADSVKGRFTISRDNSKNTLYLQMNSLRAEDTAVYYCARTDRYYGSGAHFDYWGQGTLVTVSS
VL: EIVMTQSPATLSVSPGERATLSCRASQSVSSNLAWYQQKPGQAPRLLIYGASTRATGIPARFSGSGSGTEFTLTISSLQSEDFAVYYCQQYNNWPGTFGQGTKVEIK
B4: antibody 364 (antibody, V domains shown)
VH: EVQLVESGGGLVQPGRSLRLSCTASGFTFGDYAMSWFRQAPGKGLEWVGFIRSKAYGGTTEYAASVKGRFTISRDDSKSIAYLQMNSLKTEDTAVYYCTRFGIDYDYIWGSYRYTTLFDYWGQGTLVTVSS
VL: not shown
B5: antibody 414 (antibody, V domains shown)
VH: QVQLVQSGAEVKKPGASVKVSCKASGYTFTSYYMHWVRQAPGQGLEWMGIINPSGGSTSYAQKFQGRVTMTRDTSTSTVYMELSSLRSEDTAVYYCARDPPGRDFWSGYYFGAPDYYYYYGMDVWGQGTTVTVSS
VL: DIQMTQSPSSLSASVGDRVTITCRASQGISNYLAWFQQKPGKAPKSLIYAASSLQSGVPSKFSGSGSGTDFTLTISSLQPEDFATYYCQQYNSYPYTFGQGTKLEIKR
B6: antibody 462 (antibody, V domains shown)
VH: QVQLVESGGGVVQPGRSLRLSCAASGFTFSSYGMHWVRQAPGKGLEWVAVIWYDGNNKYYADSVKGRFTISRDNSKNTLYLQMNSLRAEDTAVYYCAKDPTWFGELPSYYYYGMDVWGQGTTVTVSS
VL: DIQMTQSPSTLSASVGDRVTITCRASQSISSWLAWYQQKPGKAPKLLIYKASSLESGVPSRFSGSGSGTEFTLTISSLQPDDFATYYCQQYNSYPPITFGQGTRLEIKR
B7: antibody 562 (antibody, V domains shown)
VH: QVQLVESGGGVVQPGRSLRLSCAASGFTFSSYAMHWVRQAPGKGLEWVAVISYDGSNKYYADSVKGRFTISRDNSKNTLYLQMNSLRAEDTAVYYCARASSGGYQGPFDPWGQGTLVTVSS
VL: QSALTQPASVSGSPGQSITISCTGTSSDVGGYNYVSWYQQHPGKAPKLMIYDVSNRPSGVSNRFSGSKSGNTASLTISGLQAEDEADYYCSSYTSSSTLLYVFGTGTKVTVLG
B8: antibody 408 (antibody, V domains shown)
VH: QVQLVESGGGVVQPGRSLRLSCAASGFTFSSYAMHWVRQAPGKGLEWVAVISYDGSNKYYADSVKGRFTISRDNSRNTLYLQMNSLRAEDTAVYYCAKGADTPHYSGYDFLSVGYYYYGMDVWGQGTTVTVSS
VL: DIQMTQSPSSLSASVGDRVTITCRASQSISSYLNWYQQKPGKAPKLLIYAASSFQSGVPSRFSGSRSGTDFTLTISSLQPEDFATYYCQQSYSAPFTFGPGTKVDIKR
B9: antibody 419 (antibody, V domains shown)
VH: QVQLVQSGAEVKKPGASVKVSCKASGYTFTSYYMHWVRQAPGQGLEWMGIINPSGGSTSYAQKFQGRVTMTRDTSTSTVYMELSSLRSEDTAVYYCARDWTQSSGYDYYYGLDVWGQGTTVTVSS
VL: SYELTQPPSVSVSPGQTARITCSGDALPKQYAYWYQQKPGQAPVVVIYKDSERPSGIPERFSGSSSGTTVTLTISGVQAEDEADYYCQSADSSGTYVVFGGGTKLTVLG
B10: antibody 445 (antibody, V domains shown)
VH: QVQLVQSGAEVKKPGASVKVSCKASGYTFTSYYMHWVRQAPGQGLEWMGIINPSGGSTSYAQKFQGRVTMTRDTSTSTVYMELSSLRSEDTAVYYCARDPTEVGATSEYYYYGMDVWGQGTTVTVSS
VL: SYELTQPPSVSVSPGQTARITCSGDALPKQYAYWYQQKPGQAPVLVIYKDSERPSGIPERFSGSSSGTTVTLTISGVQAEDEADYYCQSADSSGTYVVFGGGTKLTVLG
B11: anti-SARS-CoV-2 antibody 492 (antibody, V domains shown)
VH: QVQLVESGGGVVQPGRSLRLSCAASGFTFSSYGMHWVRQAPGKGLEWVAVISYDGSNKYYADSVKGRFTISRDNSKNTLYLQMNSLRAEDTAVYYCAKDGILWWWWGYFDYWGQGTLVTVSS
VL: QSVLTQPPSVSGAPGQRVTISCTGSSSNIGAGFDVHWYQQLPGTAPKLLIYGNSNRPSGVPDRFSGSKSGTSASLAITGLQAEDEADYYCQSYDSSLSVVFGGGTKLTVL
B12: anti-SARS-CoV-2 antibody 496 (antibody, V domains shown)
VH: QVQLVQSGAEVKKPGASVKVSCKASGYTFTDYYIHWVRQAPGQGLEWMGWINPNSGGTNYAQKFQGRLTMTRDTSISTAYMELSRLRSDDTAVYYCARVYSMFREFIINPYYYYYGLDVWGQGTTVTVSS
VL: QSALTQPASVSGSPRQSITISCTGTSSDVGSYNLVSWYQQHPGKAPKLMIYEGSKRPSGVSNRFSGSKSGNTASLAISGLQAEDEANYYCCSYAGSSTLVFGGGTKLTVL
B13: anti-SARS-CoV-2 antibody 497 (antibody, V domains shown)
VH: QVQLQESGPGLVKPSQTLSLTCTVSGGSINSFGYYWSWIRQHPGKGLEWIGYIYYSGSTDYNPSLNSRVTISLDTSKNQFLLKLTSVTAADTAVYYCAKLTDYYDSSGYSFDYWGQGTLVTVSS
VL: DIQMTQSPSSVSASVGDRVTITCRASQDISRWLAWYQQKPGKAPKLLIYAASSLQSGVPSRFSGRGSGTELTLTISSLQPEDFATYFCQQAYSFPFTFGGGTKVEIK
B14: antibody 385 (antibody, V domains shown)
VH: QVQLVESGGGVVQPGRSLRLSCAASGFTFSSYAIHWVRQAPGKGLEWVAVISYDGSNKYYADSVKGRFTISRDNSKNTLYLQMNSLRAEDTAVYYCARPRSGSYWGAFDIWGQGTMVTVSS
VL: QSVLTQPPSVSGAPGQRVTISCTGSSSNIGARYDVHWYQQLPGTAPKLLIYGNSNRPSGVPDRFSGSKSGTSASLAITGLQAEDEADYYCQSYDSSLRGVFGGGTKLTVL
B15: antibody 395 (antibody, V domains shown)
VH: QVQLVQSGSELKKPGASVKLSCQASGYTFSNHAMNWVRQAPGQGLEWMGWINTNTGNPTYAQGFTGRFVFSLDTSVGTAYLHISSLKAEDTAFYYCARASARPGVATNLDFWGQGTLVVVSS
VL: DIQMTQSPSSLSASVGDRVTITCRTSQNIDNYLNWYQQKPGKAPNLLIYAASRLHSGVPSRFSGSGSGTDFTLIISSLQPEDLATYYCQQSYSNPLTFGPGTKVDIR
B16: antibody 405 (antibody, V domains shown)
VH: not shown
VL: QSALTQPRSVSGSPGQSVTISCTGTSSDVGGYNYVSWYQQHPGKAPKLMIYDVSKRPSGVPDRFSGSKSGNTASLTISGLQAEDEADYYCCSYAGSYNVVFGGGTKLTVL
B17: antibody 409 (antibody, V domains shown)
VH: QVTLRESGPALVKPTQTLTLTCTFSGFSLSTSGMCVSWIRQPPGKALEWLALIDWDDDKYYSTSLKTRLTISKDTSKNQVVLTMTNMDPVDTATYYCARTTYYYVSGRRAEFDPWGQGTLVTVSS
VL: NFMLTQPHSVSESPGKTVTISCTGSSGSIASNYVQWYQQRPGSAPTTVIYEDNQRPSGVPDRFSGSIDSSSNSASLTISGLKTEDEADYYCQSYDSSNQGVFGGGTKLTVL
B18: antibody 420 (antibody, V domains shown)
VH: QVQLVESGGGVVQPGRSLRLSCAASGFTFSSYGMHWVRQAPGKGLEWVAVIWYDGSNKYYADSVKGRFTISRDNSKNTLYLQMNSLRAEDTAVYYCAKDGGDYGDVNFDYWGQGTLVTVSS
VL: SYELTQPPSVSVSPGQTARITCSGDALPKQYAYWYQQKPGQAPVLVIYKDSERPSGIPERFSGSSSGTTVTLTISGVQAEDEADYYCQSAGSSGNYKVFGGGTKLTVL
B19: antibody 421 (antibody, V domains shown)
VH: QVQLVESGGGVVQPGRSLRLSCAASGFTFSTYAMHWVRQAPGKGLEWVAVISYDGSNKYYADSVKGRFTISRDNSKNTLYLQMNSLRAEDTAVYYCARGYGSGSYYPLYLYWGQGTLVTVSS
VL: not shown
B20: antibody 422 (antibody, V domains shown)
VH: QVQLVQSGSELKKPGASVKVSCKASGYTFTSYAMNWVRQAPGQGLEWMGWINTNTGNPTYAQGFTGRFVFSLDTSVSTTYLQISSLKAEDTAVYYCARVIGVVTYYYYGMDVWGQGTTVTVSS
VL: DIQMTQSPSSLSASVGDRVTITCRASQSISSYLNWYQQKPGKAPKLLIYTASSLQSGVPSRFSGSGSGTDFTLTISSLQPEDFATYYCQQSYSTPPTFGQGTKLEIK
B21: antibody 423 (antibody, V domains shown)
VH: EVQLVESGGGLIQPGGSLRISCAASGFTVRNNHMSWVRQAPGKGLEWVSVFYRGGTTYYADSVKGRFTISRDDSKNTVDLQMNSLRGEDTAVYYCARGLSVAASGYFDCWGQGTLVTVSS
VL: DIQMTQSPSSVSASVGDTVTITCRANQGISSWLAWYQQVPGKAPELLIYATSTLQSGVPSRFSGSGSGTDFTLTISSLQPEDFATYYCQQANSFPFTFGPGTKVDIK
B22: antibody 431 (antibody, V domains shown)
VH: QVQLVESGGGVVQPGRSLRLSCAASGFTFSSYAMHWVRQAPGKGLEWLAVISYDGSNKYYADSVKGRFTISRDNSKNTLYLQMNSLRAEDTAVYYCARSFRGGYYYGMDVWGQGTTVTVSS
VL: DIQLTQSPSFLSASVGDRVTITCRASQGISSYLAWYQQKPGKAPKLLIYAASTLQSGVPSRFSGSGSGTEFTLTISSLQPEDFATYYCQQLNSYPLFTFGPGTKVDIK

These binders were tested against T1, SARS-CoV-2 full length spike protein (wild type) (SARS-CoV-2, UniProt P0DTC2 14-1208) (assay: multiplexed bead assay, flow cytometry; column D).
T1 construct: also called SARS-CoV-2 spike; S protein
B1: no binding.

Each binder was assayed against SARS-CoV-2 spike protein (SARS-CoV-2, UniProt P0DTC2 14-1208) (assay: HT-SPR, Carterra LSA; mAb coupled to chip, antigen injected; 1:1 fit).
Binder B2 has a Kd of 0.0454 nM, a koff of 1e-05 s⁻¹ and a kon of 220000 M⁻¹ s⁻¹.
With B3 the Kd was 2.28 nM, the koff was 0.0003 s⁻¹ and the kon was 132000 M⁻¹ s⁻¹.

What follows are binders tested against T2, SARS-CoV-2 spike protein (nCoV-S Spike Protein Trimer, NIH) (SARS-CoV-2, UniProt P0DTC2 14-1208) (assay: HT-SPR (Carterra LSA), mAb on chip, SARS-CoV-2 spike protein titrated, 37 C).
T2 construct: also called S protein
Work on B4 yielded a Kd of 0.0233 nM.
For B5, the Kd was 5.21 nM.
B6 was tested, and the Kd was 4.62 nM.
With B7 the Kd was 0.138 nM.

These binders were tested against NCP-CoV (2019-nCoV) Spike Protein (S1 Subunit, His Tag) (SARS-CoV-2, UniProt P0DTC2 16-685) (assay: HT-SPR (Carterra LSA), mAb on chip, S1 subunit (His tag) in solution, 25 C).
B8 was tested, and the Kd was 171 nM.
In the case of B9, the Kd is reported as 235 nM.
With B10 the Kd was 613 nM.

What follows are binders tested against T2, SARS-CoV-2 spike protein (nCoV-S Spike …) (assay: HT-SPR (Carterra LSA), mAb on chip, SARS-CoV-2 spike protein titrated, 25 C).
Work on B4 yielded a Kd of 7.61 nM.
B5 showed a Kd of 7.93 nM.
With B6 the Kd was 7.58 nM.
Binder B7 has a Kd of 0.173 nM.

What follows are binders tested against SARS-CoV-2 spike (S) protein, full length, wild type (SARS-CoV-2, UniProt P0DTC2 14-1208) (assay: not given).
B11 was tested, and the “median fluorescence fold over isotype” value was 664 fold over isotype.
B12 was tested, and the “median fluorescence fold over isotype” value was 1090 fold over isotype.
For B13, the “median fluorescence fold over isotype” value was 630 fold over isotype.

Each binder was assayed against SARS-CoV-2 full length spike protein, wild type, expressed on the surface of transiently transfected CHO cells (SARS-CoV-2, UniProt P0DTC2 14-1273) (assay: not given).
With B14 the “median fluorescence fold over isotype control” value was 10.5 fold over isotype.
For B15, the “median fluorescence fold over isotype control” value was 7.8 fold over isotype.
In the case of B16, the “median fluorescence fold over isotype control” value is reported as 9.7 fold over isotype.
With B17 the “median fluorescence fold over isotype control” value was 13.8 fold over isotype.
B18 was tested, and the “median fluorescence fold over isotype control” value was 1.99 fold over isotype.
For B19, the “median fluorescence fold over isotype control” value was 9.23 fold over isotype.
B20 was tested, and the “median fluorescence fold over isotype control” value was 19.6 fold over isotype.
With B21 the “median fluorescence fold over isotype control” value was 14.6 fold over isotype.
B22 was tested, and the “median fluorescence fold over isotype control” value was 10.7 fold over isotype.
